The record followed here is US20250230239A1.

This test has as its target recombinant his-tagged and biotinylated CD3ε protein (AcroBiosystems, CDE-H8223), human (human) (UniProt P07766). The test is described as follows: BLI (Octet RED96), biotinylated his-tagged CD3ε on SSA biosensor, bispecific as analyte 200 to 3.125 nM. Background: BLI is a label-free optical method that tracks binding on a fibre tip over time.

recombinant his-tagged and biotinylated CD3ε protein (AcroBiosystems, CDE-H8223), human (human), sequence (P07766 23-126 limits assumed): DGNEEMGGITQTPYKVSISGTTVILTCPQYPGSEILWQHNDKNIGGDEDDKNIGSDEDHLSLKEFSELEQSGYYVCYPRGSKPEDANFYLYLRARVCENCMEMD

B1: monovalent bispecific antibody comprising anti-CD3 scFv v619_HLh (SEQ ID NO: 28) and a Her2-binding domain (bispecific antibody, part only; not given: Her2 arm and Fc, not shown: another chain or arm of the molecule; a dimerising Fc or GST; small tags and cut ends)
scFv: EVQLVESGGGLVQPGGSLKLSCAASGFTFSTYAMNWVRQASGKGLEWVGRIRSKYNNYATYYADSVKDRFTISRDDSKNTAYLQMNSLKTEDTAVYYCVRHGNFGNSYVSWWAYWGQGTLVTVSSGGGGSGGGGSGGGGSQTVVTQEPSLTVSPGGTVTLTCGSSTGAVTTSNYVNWVQQKPGQAPRGLIGGTNKRAPGTPARFSGSLIGGKAALTLSGAQPEDEAEYYCVLWYSNRWVFGGGTKLTVL
For B1, the dissociation constant Kd was in the range of 1.66 to 5.64 nM.

B2: monovalent bispecific antibody comprising anti-CD3 scFv v619-HLh-CC4 (SEQ ID NO: 32) and a Her2-binding domain (bispecific antibody, part only; not given: Her2 arm and Fc, not shown: another chain or arm of the molecule; a dimerising Fc or GST; small tags and cut ends)
scFv: EVQLVESGGGLVQPGGSLKLSCAASGFTFSTYAMNWVRQASGKGLEWVGRIRSKYNNYATYYADSVKDRFTISRDDSKNTAYLQMNSLKTEDTAVYYCVRHGNFGNSYVSWFAYWGCGTLVTVSSGGGGSGGGGSGGGGSQTVVTQEPSLTVSPGGTVTLTCGSSTGAVTTSNYVNWVQQKPGCAPRGLIGGTNKRAPGTPARFSGSLIGGKAALTLSGAQPEDEAEYYCVLWYSNRWVFGGGTKLTVL
modifications: Engineered VH-VL disulfide (Cys at VH 117 and VL 44 of the domains) within the scFv
With B2, the Kd came out at 11 nM.

One may read the Kd as the concentration at which binding is half-saturated.
